According to patent US20130022546A1 (UNIVERSITY OF TENNESSEE RESEARCH FOUNDATION, published 2013):
Ends that are not written are not given here.

Tests used:
Assay in all cases: biotinylated peptide overlaid on formalin-fixed amyloid-containing tissue sections; list of amyloids that p31 'specifically binds significantly'
[1] = molecular target: T1, ALECT2 amyloid (Lect2 amyloidosis) (human, UniProt O14960 19-151, limits assumed)
T1 construct: also called ALEC2
T1 sequence (looked up): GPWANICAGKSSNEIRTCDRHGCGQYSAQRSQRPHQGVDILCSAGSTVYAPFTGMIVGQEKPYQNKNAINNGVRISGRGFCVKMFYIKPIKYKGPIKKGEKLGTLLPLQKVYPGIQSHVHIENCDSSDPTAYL
Procedure: (§1) The peptides were overlaid onto formalin-fixed 6 μm-thick amyloid-containing tissue sections, incubated overnight and then the distribution visualized using standard immunohistochemical techniques.

[2] = molecular target: Aβ amyloid (Alzheimer's disease) (human, UniProt P05067 672-713)
Procedure: as §1

[3] = molecular target: ATTR amyloid (transthyretin amyloidosis) (human, UniProt P02766 21-147)
Procedure: as §1

AA amyloid (human) = molecular target: T2, AA amyloid (human) (human, UniProt P0DJI8 19-94, limits assumed)
T2 construct: also called serum amyloid protein A amyloidosis
T2 sequence (looked up): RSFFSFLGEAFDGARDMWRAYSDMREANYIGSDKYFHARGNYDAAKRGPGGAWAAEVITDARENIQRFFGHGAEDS
Procedure: as §1

AA amyloid (canine) = molecular target: T3, AA amyloid (canine) (canine, UniProt P19708 19-111)
T3 sequence (looked up): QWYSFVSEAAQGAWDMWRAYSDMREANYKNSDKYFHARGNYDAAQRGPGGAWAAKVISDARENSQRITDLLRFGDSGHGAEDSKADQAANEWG
Procedure: as §1

Measured: binding result

B1: peptide p31 (peptide)
peptide: CGGYSKAQKAQAKQAKQAQKAQKAQAKQAKQ
modifications: also: label differs by assay: biotinyl-maleimide on Cys1 (tissue overlays), 125I on Tyr or 99mTc (imaging)
notes: Synthetic peptide with an N-terminal CGGY leader
binds: all assays above
